Results reported in US20240132578A1.

Assays:
Test in all cases: cell-based or functional assay
[1] = target: HIV-1 envelope glycoprotein (Env) of isolate 94UG103, subtype A (HIV-1)
[2] = target: HIV-1 envelope glycoprotein (Env) of isolate MG RM-A-011, subtype A (HIV-1)
[3] = target: HIV-1 envelope glycoprotein (Env) of isolate APV_6, on pseudovirus (HIV-1)
[4] = target: HIV-1 envelope glycoprotein (Env) of isolate PVO.4, on pseudovirus (HIV-1)
[5] = target: HIV-1 envelope glycoprotein (Env) of isolate MG RM-A-009, subtype A (HIV-1)
[6] = target: HIV-1 envelope glycoprotein (Env) of isolate 92WR020, subtype A (HIV-1)
[7] = target: HIV-1 92UG005 envelope protein (Env) on pseudovirus (HIV-1)
[8] = target: HIV-1 Env of pseudovirus MGRM-F1-022 (HIV-1)
[9] = target: HIV-1 envelope glycoprotein (Env) of isolate MGRM-AE-008 (HIV-1)
[10] = target: HIV-1 Env of pseudovirus MGRM-F1-016 (HIV-1)
[11] = target: HIV-1 Env of pseudovirus MGRM-F1-015 (HIV-1)
[12] = target: HIV-1 Env of isolate MGRM-C-028 (subtype C), on pseudovirus (HIV-1)
[13] = target: HIV-1 Env of pseudovirus isolate MGRM-Chronic-B-002 (clade B) (HIV-1)
[14] = target: HIV-1 Env of isolate MG RM-A-012 (pseudovirus) (HIV-1)
[15] = target: HIV-1 Env of isolate MGRM-C-019 (subtype C), on pseudovirus (HIV-1)
[16] = target: HIV-1 Env of isolate CMU02 (pseudovirus) (HIV-1)
[17] = target: HIV-1 Env of pseudovirus isolate 6535.3 (clade B) (HIV-1)
[18] = target: HIV-1 Env of pseudovirus isolate MGRM-Chronic-B-003 (clade B) (HIV-1)
[19] = target: HIV-1 MGRM-D-018 envelope protein (Env) on pseudovirus (HIV-1)
[20] = target: HIV-1 92BR020 Env (HIV-1)
[21] = target: HIV-1 JR-CSF Env N301A (HIV-1 (isolate JR-CSF, clade B)) (UniProt P20871)
[22] = target: HIV-1 Env of isolate CMU02 (subtype AE) (HIV-1)
[23] = target: HIV-1 Env of isolate MGRM-A-004 (pseudovirus) (HIV-1)
[24] = target: HIV-1 Env of isolate MGRM-F1-017 (HIV-1)
[25] = target: HIV-1 Env of isolate MGRM-D-018 (pseudovirus) (HIV-1)
[26] = target: HIV-1 Env of isolate MGRM-F1-008 (HIV-1)
[27] = target: HIV-1 Env of isolate MGRM-AE-005 (subtype AE) (HIV-1)
[28] = target: HIV-1 Env of pseudovirus isolate MGRM-C-008 (clade C) (HIV-1)
[29] = target: HIV-1 Env of isolate 98CN009 (pseudovirus) (HIV-1)
[30] = target: HIV-1 Env of isolate MGRM-F1-010 (HIV-1)

Chain of 4995_E20 (PGT-142) (antibody) (VH): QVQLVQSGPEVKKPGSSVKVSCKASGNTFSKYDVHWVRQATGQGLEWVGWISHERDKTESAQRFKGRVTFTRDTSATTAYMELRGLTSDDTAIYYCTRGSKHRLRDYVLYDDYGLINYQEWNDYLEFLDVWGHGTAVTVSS
Chain of 4995_E20 (PGT-142) (antibody) (VL): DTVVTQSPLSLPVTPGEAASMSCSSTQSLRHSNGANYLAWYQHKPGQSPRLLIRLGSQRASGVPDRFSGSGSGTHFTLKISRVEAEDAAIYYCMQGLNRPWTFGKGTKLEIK
Chain of 4995_P16 (PGT-145) (antibody) (VH): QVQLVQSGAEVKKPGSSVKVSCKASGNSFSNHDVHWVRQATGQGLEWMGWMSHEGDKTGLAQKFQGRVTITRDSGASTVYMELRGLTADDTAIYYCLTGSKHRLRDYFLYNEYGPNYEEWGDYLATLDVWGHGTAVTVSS
Chain of 4995_P16 (PGT-145) (antibody) (VL): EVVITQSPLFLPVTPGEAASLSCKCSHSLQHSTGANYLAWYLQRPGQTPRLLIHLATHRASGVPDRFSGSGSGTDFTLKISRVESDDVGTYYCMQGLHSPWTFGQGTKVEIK
Chain of PGT-144 (4970_K22) (antibody) (VH): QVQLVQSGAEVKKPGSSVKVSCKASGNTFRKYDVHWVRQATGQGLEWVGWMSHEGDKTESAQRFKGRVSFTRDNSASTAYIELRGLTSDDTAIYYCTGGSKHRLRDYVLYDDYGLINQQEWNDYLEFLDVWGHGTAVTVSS
Chain of PGT-144 (4970_K22) (antibody) (VL): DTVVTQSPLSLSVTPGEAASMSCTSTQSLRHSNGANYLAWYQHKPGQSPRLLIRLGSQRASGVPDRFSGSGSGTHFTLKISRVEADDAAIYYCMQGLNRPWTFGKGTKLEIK
Chain of PGT-141 (4964_G22; 4993_K13) (antibody) (VH): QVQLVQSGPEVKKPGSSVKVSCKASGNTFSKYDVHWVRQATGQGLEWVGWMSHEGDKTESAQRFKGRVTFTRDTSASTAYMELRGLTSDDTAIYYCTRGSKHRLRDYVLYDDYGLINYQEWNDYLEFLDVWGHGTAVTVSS

Q: For 4838_L06 (PGT-121) (antibody), which IC50, pseudovirus neutralization [1] is on record?
A: Its IC50, pseudovirus neutralization is 2.52 µg/mL.

Q: And the IC50, pseudovirus neutralization [2]?
A: The IC50, pseudovirus neutralization was greater than 50 µg/mL.

Q: What about the IC50, pseudovirus neutralization [3] of the same substance?
A: The IC50, pseudovirus neutralization was 0.018 µg/mL.

Q: And the IC50, pseudovirus neutralization [4]?
A: Its IC50, pseudovirus neutralization is 0.137 µg/mL.

Q: And the IC50, pseudovirus neutralization [5]?
A: The IC50, pseudovirus neutralization was 0.006 µg/mL.

Q: What about the IC50, pseudovirus neutralization [6] of the same substance?
A: The IC50, pseudovirus neutralization was 0.004 µg/mL.

Q: And the IC50 (ug/mL), pseudovirus neutralization [7]?
A: Its IC50 (ug/mL), pseudovirus neutralization is greater than 10 µg/mL.

Q: How did the IC50, pseudovirus neutralization [8] turn out when PGT-141 (4964_G22; 4993_K13) (antibody) was run?
A: Its IC50, pseudovirus neutralization is 0.114 µg/mL.

Q: What about the IC50 [9] of the same substance?
A: The IC50 was 0.101 µg/mL.

Q: And the IC50, pseudovirus neutralization [10]?
A: Its IC50, pseudovirus neutralization is greater than 50 µg/mL.

Q: What about the IC50, pseudovirus neutralization [11] of the same substance?
A: Its IC50, pseudovirus neutralization is greater than 50 µg/mL.

Q: Which results are given for PGT-145 (4995_P16) (antibody)?
A: IC50, pseudovirus neutralization [8]: 0.009 µg/mL; IC50 [9]: 1.46 µg/mL; IC50, pseudovirus neutralization [10]: 17.5 µg/mL; IC50, pseudovirus neutralization [11]: 1.76 µg/mL

Q: Which IC50, single-round pseudovirus neutralization [12] does the source give for VRC01 (antibody) here?
A: Its IC50, single-round pseudovirus neutralization is 0.319 µg/mL.

Q: And the IC50, pseudovirus neutralization [8]?
A: Its IC50, pseudovirus neutralization is 0.055 µg/mL.

Q: And the IC50 [9]?
A: Its IC50 is 1.72 µg/mL.

Q: What about the IC50, pseudovirus neutralization [13] of the same substance?
A: The IC50, pseudovirus neutralization was 0.117 µg/mL.

Q: And the IC50, pseudovirus neutralization [10]?
A: Its IC50, pseudovirus neutralization is 0.517 µg/mL.

Q: And the IC50 (µg/mL), single-round pseudovirus neutralization [14]?
A: The IC50 (µg/mL), single-round pseudovirus neutralization was greater than 50 µg/mL.

Q: What about the IC50, single-round pseudovirus neutralization [15] of the same substance?
A: Its IC50, single-round pseudovirus neutralization is 1.13 µg/mL.

Q: What about the IC50 (µg/mL), single-round pseudovirus neutralization [16] of the same substance?
A: Its IC50 (µg/mL), single-round pseudovirus neutralization is 0.515 µg/mL.

Q: And the IC50, pseudovirus neutralization [17]?
A: Its IC50, pseudovirus neutralization is 1.75 µg/mL.

Q: And the IC50, pseudovirus neutralization [11]?
A: Its IC50, pseudovirus neutralization is 0.387 µg/mL.

Q: What about the IC50, pseudovirus neutralization [18] of the same substance?
A: Its IC50, pseudovirus neutralization is 0.1 µg/mL.

Q: For 4995_P16 (PGT-145) (antibody), which IC50, single-round pseudovirus neutralization [12] is on record?
A: Its IC50, single-round pseudovirus neutralization is 0.099 µg/mL.

Q: And the IC50, pseudovirus neutralization [13]?
A: Its IC50, pseudovirus neutralization is 3.67 µg/mL.

Q: What about the IC50 (µg/mL), single-round pseudovirus neutralization [14] of the same substance?
A: The IC50 (µg/mL), single-round pseudovirus neutralization was 0.23 µg/mL.

Q: What about the IC50, single-round pseudovirus neutralization [15] of the same substance?
A: The IC50, single-round pseudovirus neutralization was 0.005 µg/mL.

Q: What about the IC50 (µg/mL), single-round pseudovirus neutralization [16] of the same substance?
A: Its IC50 (µg/mL), single-round pseudovirus neutralization is 1.43 µg/mL.

Q: And the IC50, pseudovirus neutralization [17]?
A: Its IC50, pseudovirus neutralization is greater than 50 µg/mL.

Q: And the IC50, pseudovirus neutralization [18]?
A: Its IC50, pseudovirus neutralization is 0.045 µg/mL.

Q: With 5141_B17 (PGT-126) (antibody) as the substance, how does the IC50, pseudovirus neutralization [1] read?
A: The IC50, pseudovirus neutralization was 0.008 µg/mL.

Q: And the IC50, pseudovirus neutralization [2]?
A: The IC50, pseudovirus neutralization was greater than 50 µg/mL.

Q: And the IC50 (ug/mL), pseudovirus neutralization [19]?
A: The IC50 (ug/mL), pseudovirus neutralization was 0.0093 µg/mL.

Q: And the IC50, pseudovirus neutralization [20]?
A: The IC50, pseudovirus neutralization was 0.0163 µg/mL.

Q: And the IC50, pseudovirus neutralization [3]?
A: The IC50, pseudovirus neutralization was 0.007 µg/mL.

Q: What about the IC50, pseudovirus neutralization [4] of the same substance?
A: Its IC50, pseudovirus neutralization is 0.017 µg/mL.

Q: And the IC50, pseudovirus neutralization [5]?
A: The IC50, pseudovirus neutralization was 0.004 µg/mL.

Q: And the IC50, pseudovirus neutralization [6]?
A: The IC50, pseudovirus neutralization was 0.006 µg/mL.

Q: What about the IC50 (ug/mL), pseudovirus neutralization [7] of the same substance?
A: The IC50 (ug/mL), pseudovirus neutralization was 0.0181 µg/mL.

Q: And the Fold IC50 increase relative to wild-type [21]?
A: Its Fold IC50 increase relative to wild-type is 314 fold.

Q: With 4877_D15 (PGT-122) (antibody) as the substance, how does the IC50, pseudovirus neutralization [1] read?
A: The IC50, pseudovirus neutralization was 2.04 µg/mL.

Q: And the IC50, pseudovirus neutralization [2]?
A: Its IC50, pseudovirus neutralization is greater than 50 µg/mL.

Q: What about the IC50 (ug/mL), pseudovirus neutralization [19] of the same substance?
A: The IC50 (ug/mL), pseudovirus neutralization was 0.0115 µg/mL.

Q: What about the IC50, pseudovirus neutralization [20] of the same substance?
A: The IC50, pseudovirus neutralization was 0.0337 µg/mL.

Q: And the IC50, pseudovirus neutralization [3]?
A: The IC50, pseudovirus neutralization was 0.019 µg/mL.

Q: And the IC50, pseudovirus neutralization [4]?
A: Its IC50, pseudovirus neutralization is 0.689 µg/mL.

Q: And the IC50, pseudovirus neutralization [5]?
A: Its IC50, pseudovirus neutralization is 0.012 µg/mL.

Q: And the IC50, pseudovirus neutralization [6]?
A: Its IC50, pseudovirus neutralization is 0.009 µg/mL.

Q: And the IC50 (ug/mL), pseudovirus neutralization [7]?
A: Its IC50 (ug/mL), pseudovirus neutralization is greater than 10 µg/mL.

Q: Which results are given for PGT-144 (4970_K22) (antibody)?
A: IC50, pseudovirus neutralization [8]: 0.382 µg/mL; IC50 [9]: 3.55 µg/mL; IC50, pseudovirus neutralization [10]: > 50 µg/mL; IC50, pseudovirus neutralization [11]: > 50 µg/mL

Q: What does the source list for 5345_I01 (PGT-137) (antibody)?
A: IC50, pseudovirus neutralization [22]: > 50 µg/mL; IC50 (µg/mL), pseudovirus neutralization [23]: > 50 µg/mL; IC50 (µg/mL), pseudovirus neutralization [24]: > 50 µg/mL; IC50 (µg/mL), pseudovirus neutralization [25]: 15.1 µg/mL; IC50 (µg/mL), pseudovirus neutralization [26]: > 50 µg/mL; IC50, pseudovirus neutralization [27]: > 50 µg/mL; IC50, pseudovirus neutralization [28]: > 50 µg/mL; IC50 (µg/mL), pseudovirus neutralization [29]: 5.06 µg/mL; IC50 (µg/mL), pseudovirus neutralization [30]: > 50 µg/mL

Q: What does the source list for 4995_E20 (PGT-142) (antibody)?
A: IC50, single-round pseudovirus neutralization [12]: 2.12 µg/mL; IC50, pseudovirus neutralization [13]: > 50 µg/mL; IC50, pseudovirus neutralization [20]: > 10 µg/mL; IC50 (µg/mL), single-round pseudovirus neutralization [14]: > 50 µg/mL; IC50, single-round pseudovirus neutralization [15]: 0.003 µg/mL; IC50 (µg/mL), single-round pseudovirus neutralization [16]: > 50 µg/mL; IC50, pseudovirus neutralization [17]: > 50 µg/mL; IC50, pseudovirus neutralization [18]: 0.484 µg/mL

Q: How did the IC50, pseudovirus neutralization [1] turn out when 5123_A06 (PGT-125) (antibody) was run?
A: The IC50, pseudovirus neutralization was 0.008 µg/mL.

Q: What about the IC50, pseudovirus neutralization [2] of the same substance?
A: The IC50, pseudovirus neutralization was greater than 50 µg/mL.

Q: And the IC50 (ug/mL), pseudovirus neutralization [19]?
A: The IC50 (ug/mL), pseudovirus neutralization was 0.0382 µg/mL.

Q: And the IC50, pseudovirus neutralization [20]?
A: Its IC50, pseudovirus neutralization is 0.0214 µg/mL.

Q: What about the IC50, pseudovirus neutralization [3] of the same substance?
A: Its IC50, pseudovirus neutralization is 0.021 µg/mL.

Q: What about the IC50, pseudovirus neutralization [4] of the same substance?
A: Its IC50, pseudovirus neutralization is 0.042 µg/mL.

Q: What about the IC50, pseudovirus neutralization [5] of the same substance?
A: The IC50, pseudovirus neutralization was 0.009 µg/mL.

Q: What about the IC50, pseudovirus neutralization [6] of the same substance?
A: The IC50, pseudovirus neutralization was 0.004 µg/mL.

Q: And the IC50 (ug/mL), pseudovirus neutralization [7]?
A: The IC50 (ug/mL), pseudovirus neutralization was greater than 10 µg/mL.

Q: And the Fold IC50 increase relative to wild-type [21]?
A: The Fold IC50 increase relative to wild-type was 213 fold.
